Test results from patent US20240294641A1 (CHILDREN S MEDICAL CENTER, published 2024).
Like-named read-outs stand apart in the source and are kept apart here. One block for each binder: values may come before it.

Legend:
[1] = biological target: T1, PD1 extracellular domain, without fusion to other proteins (human, UniProt Q15116 25-170); assay: ELISA, plate coated with PD1 extracellular domain without Fc fusion, OD405
T1 construct: extracellular domain; also called unfused PD1; monomeric PD1
Excerpt: (§1) ELISA was used to compare the PD1 binding activities of the new and previous anti-PD1 antibodies. The ELISA coating antigen was a recombinant protein of the extracellular domain of PD1, without fusion to other proteins so that the ELISA measured binding activities specific to PD1.

[2] = biological target: T2, full-length human PD1 expressed on NS1 cells (PD1-NS1) (human, UniProt Q15116 25-288); assay: FACS on PD1-NS1 cells, PE-anti-human kappa
T2 construct: whole, on cells; also called surface-expressed PD1; PD1 expressing cell line
T2 sequence (Q15116 25-288): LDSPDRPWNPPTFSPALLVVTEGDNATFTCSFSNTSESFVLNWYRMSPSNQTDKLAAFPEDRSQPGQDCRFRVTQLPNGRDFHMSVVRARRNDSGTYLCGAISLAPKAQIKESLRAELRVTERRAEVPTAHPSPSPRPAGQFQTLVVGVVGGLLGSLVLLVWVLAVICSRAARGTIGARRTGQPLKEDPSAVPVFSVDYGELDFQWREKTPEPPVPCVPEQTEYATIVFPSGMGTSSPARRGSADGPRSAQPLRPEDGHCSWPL

[3] = biological target: T1, PD1 extracellular domain, without …; assay: Biacore (SPR), antibody immobilized on the sensor chip, PD1 extracellular domain in flow
Description: In this assay, antibodies were immobilized on sensor chips, and PD1 extracellular domain, the same protein used in the ELISA experiment in FIG. 5C, flowed through sensor chip. The kinetics of PD1/antibody interaction was measured in real time. The table lists the association rate constant (kₐ), dissociation rate constant (kd) and equilibrium dissociation constant (KD) for each antibody.
Biacore analysis of the kinetics of the interaction between anti-PD1 antibodies and PD1 was performed by Affina Biotechnologies. Given the quantitative and sensitive nature of the assay, non-physiological modifications of the antibodies and PD1 were minimized. […] The PD1-Fc fusion protein contains a TEV protease cleavage site. After TEV digest, the PD1 portion was separated from the Fc region. […] However, in the context of the PD-Fc fusion, PD1 is dimerized through the Fc region and may engage in bivalent interactions with IgG antibodies. The avidity effect can cause major deviations from the actual binding affinity between monomeric PD1 and single antigen-binding site. Separation of PD1 from the Fc portion prevented this error. In the biacore assay, the antibodies were immobilized on sensor chips and PD1 was passed over the immobilized antibodies. Association and dissociation of antibodies and PD1 were detected in real time.

[4] = biological target: T2, full-length human PD1 expressed on NS1 …; assay: FACS on PD1-NS1 cells, PE-anti-human kappa; remark: listed apart in the source
Description: To test the binding of anti-PD1 antibodies to surface expressed PD1, full-length human PD1 in mouse plasmacytoma cell line, NS1, was expressed. […] A construct that expresses the full length human PD1 was transfected into NS1 cells, and clones with stable integration of the expression construct were obtained. […] For the FACS analysis in FIG. 5B, the PD1-NS1 cells were incubated with anti-PD1 antibodies. […] The FACS staining reaction was analyzed on Attune NXT FACS machine, and the data were plotted with FlowJo 10 software.

[5] = biological target: T1, PD1 extracellular domain, without …; assay: ELISA, plate coated with PD1 extracellular domain without Fc fusion, OD405; remark: listed apart in the source
Excerpt: as §1
In this ELISA experiment, PD1 extracellular domain, without Fc fusion, was coated on the ELISA plate.

T1 sequence (Q15116 25-170): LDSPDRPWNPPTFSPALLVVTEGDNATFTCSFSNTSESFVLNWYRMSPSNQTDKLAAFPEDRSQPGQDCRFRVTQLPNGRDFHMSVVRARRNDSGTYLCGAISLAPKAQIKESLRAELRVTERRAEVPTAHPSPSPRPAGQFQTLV

B1: M1-3 (antibody, V domains shown)
VH: QEWLVESGGDVVQPGGSLRLSCATSKVTFNDFGIHWVRQAPGKGLEWVAIIWYDGSRNHYADSVRGRFTLSRDNSKNMVHLHMSSLRTEDTAMYYCARGIHSNDDYWGQGTMVTVSS
VL: EIVLTQSPATLSLSPGERATLSCRTSQSVSSDLAWFQQKPGQAPRLFIFDASKRVNGIPARFSGSGSGTDFTLTISSLEPEDFAVYYCQQRTDWPLTFGGGSRVEIK
notes: Expressed as human IgG4/kappa in 293F or Expi293 cells; also called 319-9-17
- binding result [1]: binds
- binding result [2]: binds

B2: M1-4 (antibody, V domains shown)
VH: QVQLVESGGDVVQPGGSLRLSCAVSGVTFGDFGFEWVRQAPGKGLEWVAVIWYDGSRKHYAESVRGRFTISRDNSRNMMYLEMTGLRVEDTAKYYCTRSHSHEDYWGQGTLVTVSS
VL: EIVLTQSPATLSLSPGERATLSCRASQSISNYLAWFQQKSGQAPRLIIHDAFKRAAGIPTRFSGSGSGTDFTLTISSLEPEDFAVYYCQQRDNWPLNFGGGTKVEIK
notes: Expressed as human IgG4/kappa in 293F or Expi293 cells; also called 319-9-27
- binding result [1]: binds
- binding result [2]: binds

B3: M1-6 (antibody, V domains shown)
VH: QVQLVESGGDVVQSGGSLRLSCAVSGVVFSDYGFEWVRQAPGKGLEWVAVIWYDGSRKHYADSVQGRFTISRDNFRNMLYLQMTGLRVEDTAKYYCTRSHSHEDYWGQGTLVTVSS
VL: EIVLTQSPATLSLSPGERATLSCGASQNIDNSLAWFQQKPGQAPRLIIYDASKRATGIPARFSGSGSGTDFTLTISTLEPEDFAVYYCQQRDHWPLNFGGGTKVEVK
notes: Expressed as human IgG4/kappa in 293F or Expi293 cells; also called 319-9-53
- binding result [1]: binds
- binding result [2]: binds

B4: 17D8 antibody (antibody, V domains shown)
VH: QVQLVESGGDVVQPGGSLRLSCAASGVAFSNYGMHWVRQAPGKGLEWVAVIWYDGSNKYYADSVKGRFTISRDNSKNMLYLQMNSLRAEDTAMYYCARNDDYWGQGTLVTVSS
VL: EIVLTQSPATLSLSPGERATLSCRASQSVSSYLAWYQQKPGQAPRLIIYDASNRATGIPARFSGSGSGTDFTLTISSLEPEDFAVYYCQQRSNWPLTFGGGTKVEIK
notes: Prototype anti-PD1 antibody (U.S. Pat. No. 8,008,449 B2); Produced as human IgG4/kappa; His-tagged for ELISA, untagged for Biacore
- Kd [3]: 3.4 nM
- koff [3]: 0.0013 s⁻¹
- kon [3]: 387000 M⁻¹ s⁻¹

B5: M2-1 (antibody, human IgG4, V domains shown)
VH: QVQLVESGGDVVQPGGSLRLSCSASGLVFRDYGMNWVRQAPGKGLEWVGLIWYDGTKKYYSDFVKGRFTISRDNSKNMLYLQMNNLRAEDTAIYYCARFLIGATRRGNAMDYWGQGTSVIVSS
VL: EVVLTQSPATLSLSPGERATLSCRASQSIDSDLAWSQQKTGQPPRLIIYDASNRATGIPARFSGSGSGTDFTLTISSLEPEDFAVYYCQQRSDWPLTFGGGTKVEIR
notes: Expressed as human IgG4/kappa; without His tag and Protein A purified for Biacore; also called 397-27-3
- Kd [3]: 3.7 nM
- koff [3]: 0.00074 s⁻¹
- kon [3]: 199000 M⁻¹ s⁻¹

B6: M2-5 (antibody, V domains shown)
VH: QVQLVESGGDVVQPGGSLRLSCAASGVVFSDYGLYWVRQAPGKGLEWVALIWYDGSKKFYADSVKGRFSISRDNSKNMLYLQMNNLRADDSAIYYCSRGIRQGPWFAYWGQGTRVTVSP
VL: EIVLTQSPATLSLSPGERATLSCRASQSISSDLTWFQQKPGQAPRLIIYDASNRATGIPARFSGSGSGTDFTLTISSLEPEDFVVYYCLQRSDWPLTFGGGTKVEIK
notes: Expressed as human IgG4/kappa in 293F or Expi293 cells; also called 397-27-93
- binding result [1]: binds
- binding result [2]: binds

B7: M1-1 (antibody, V domains shown)
VH: QVQLVESGGDVVQPGGSLRLSCAASGVAFRDYGMHWVRQAPGKGLEWVAVIWYDGSKKYYGDSVKGRFTVSRDNSKNMLYLEMNGLKAEDTAMYYCARNDDYWGQGTLVTVSS
VL: EIVLTQSPATLSLSPGERATLSCRASQSVSNSLSWYQQNPGQSPRLIIYDTSKRATGIPARFSGSGSGTDFTLTINNLETEDFAVYYCHQRSDWPLTFGGGTKVEIK
notes: Expressed as human IgG4/kappa in 293F or Expi293 cells; retains the CDR H3 of 17D8; also called 319-9-8
- binding result [4]: binds
- binding result [5]: binds

B8: M1-5 (antibody, human IgG4, V domains shown)
VH: QVQLVESGGDVVQPGGSLRLSCTVSGAVFRDLGMEWVRQAPGKGLEWLAVIWYDGGRKHYADSVKGRFTISRDNSRNMLFLQMNGLRVDDTAMYYCTRSHSTDDYWGQGTLVTVSS
VL: EIVLTQSPATLSVSPGERATLSCRASQSISSDLAWFQQKPGQAPRLIIHGASKRATGIPARFSGSGSGTDFTLTISSLEPEDFAVYYCQQRDSWPLNFGGGTKVEIK
notes: Expressed as human IgG4/kappa; without His tag and Protein A purified for Biacore; also called 319-9-34
- Kd [3]: 2.1 nM
- koff [3]: 0.0021 s⁻¹
- kon [3]: 995000 M⁻¹ s⁻¹

Further lines, results first:

- binding result [1]: binds
- binding result [2]: binds
B9: M2-4 (antibody, V domains shown)
VH: QVQLVESGGDVVQPGGSLRLSCAASGVAFRNYGMHWVRQAPGKGLEWVAIIWYDGSNKYYADSVKGRFTISRDNSKNMLYLQMNSLRAEDTAMYYCARLSIGTTHYFDTDDYWGQGTSVTVSS
VL: EIVLTQSPATLSLSPGERATLSCRASQSVSSYLAWYQQKVGQAPRLIIFDASNRATGIPARFSGSGSGTDFTLTITSLDPEDFAVYYCQQRSAWPLTFGGGTKVEIR
notes: Expressed as human IgG4/kappa; 6xHis tag at the C-terminus of the Fc for ELISA

- binding result [4]: binds
- binding result [5]: binds
B10: M2-3 (antibody, V domains shown)
VH: QGHLVESGGDVVLPGGSLRLSCTESGVDLSDFGIHWVRQTPGKGLEWVALIWYDGSKKFYADSVKDRFTISRDNSKNMVYLEMISLRVEDTAMYFCARGIRRGPWFTYWGPGTLVTVST
VL: EIVLTQSPVILSLSPGERATLSCRASQSISSDLAWFQQTPGQAPRLIIYDASNRATGIPARFSGSGSGTDFTLTISSLEPEDFAVYYCQQRSNWPLTFGGGTKVEIK
notes: Expressed as human IgG4/kappa in 293F or Expi293 cells; also called 397-27-25

- binding result [1]: binds
- binding result [2]: binds
B11: M2-2 (antibody, V domains shown)
VH: QVQLVESGGDVVQPGGSLRLSCSASGLVISDYGMNWVRQAPGKGLEWVGLIWYDGSKKYYSDFVKGRFTISRDNSKNILYLQMNNLRAEDTAMYYCARFLIGATRRGNAMDYWGQGTSVTVSS
VL: EVVLTQSPATLSLSPGERATLSCRASQSIDSDLAWSQQKPGQPPRLIIYDASNRATGIPARFSGSGSGTDFTLTISSLEPEDFAVYYCQQRSDWPLTFGGGTKVEIR
notes: Expressed as human IgG4/kappa in 293F or Expi293 cells; also called 397-27-23

- binding result [4]: binds
- binding result [5]: binds
B12: M1-7 (antibody, V domains shown)
VH: QLQLVESGGDVVQPGGSLRLSCAASGVVFSDFGLEWVRQAPGKGLEWLAVIWYDGSRKHYADSVKGRFTISRDNSKNMLYLQMNSLRVEDTAMYYCARCHSKEDYWGQGTLVTVSS
VL: EIEVTQSPATLSLSPGERATLSCRASQSIDTDLAWFQQRPGQTPRLIIYDASKRATGIPARFSGGGSGTDFTLTISSLEPEDFAVYYCQQRTTWPLTFGGGTKVEIK
notes: Expressed as human IgG4/kappa in 293F or Expi293 cells; also called 319-9-75

- binding result [1]: binds
- binding result [2]: binds
B13: M1-2 (antibody, V domains shown)
VH: QVQLVESGGDVVQPGGSLRLSCAASGVAFSDYGMEWVRQAPGKGLEWLAVIWYDGSRKHYADSVKGRFTISRDNSKNILYLQMNSLRAEDTAMYYCARCHSKDDYWGQGTLVTVSS
VL: EIVLTQFPATLSLSPGERATLSCRTSQNIDSDLAWFQQKPGQAPRLIIYDASNRATGIPARFSGGGSGTDFTLTITSLEPEDFAVYYCQQRTTWPLTFGGGTKVEIK
notes: Expressed as human IgG4/kappa in 293F or Expi293 cells; also called 319-9-15
